Assay results reported in publication PMC10995880 (iScience, 2024).
Residue numbers refer to the chain shown, from its start. Names may count otherwise.

B1: Flag-PEX3ΔN-G138E (domain or fragment, UniProt P56589 41-373, looked up)
chain: QEREAAEYIAQARRQYHFESNQRTCNMTVLSMLPTLREALMQQLNSESLTALLKNRPSNKLEIWEDLKIISFTRSTVAVYSTCMLVVLLRVQLNIIGEYIYLDNAAVGKNGTTILAPPDVQQQYLSSIQHLLGDGLTELITVIKQAVQKVLGSVSLKHSLSLLDLEQKLKEIRNLVEQHKSSSWINKDGSKPLLCHYMMPDEETPLAVQACGLSPRDITTIKLLNETRDMLESPDFSTVLNTCLNRGFSRLLDNMAEFFRPTEQDLQHGNSMNSLSSVSLPLAKIIPIVNGQIHSVCSETPSHFVQDLLTMEQVKDFAANVYEAFSTPQQLEK
B2: Flag-PEX3ΔN-M72K (domain or fragment, UniProt P56589 41-373, looked up)
chain: B1 chain with M32K, E98G

Molecular target: His6-PEX19-WT (1–299 aa), non-farnesylated (human, UniProt P40855 1-299)
Sequence (P40855 whole entry, the tested form may be a part): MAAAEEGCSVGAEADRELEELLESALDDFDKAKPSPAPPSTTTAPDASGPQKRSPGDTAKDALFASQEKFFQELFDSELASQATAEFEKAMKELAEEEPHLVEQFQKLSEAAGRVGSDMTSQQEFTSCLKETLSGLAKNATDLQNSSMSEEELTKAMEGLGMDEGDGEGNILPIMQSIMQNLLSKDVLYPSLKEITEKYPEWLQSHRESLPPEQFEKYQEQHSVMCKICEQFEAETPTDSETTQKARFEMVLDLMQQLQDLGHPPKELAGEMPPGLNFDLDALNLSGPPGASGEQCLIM
Test: pull-down; His6-PEX19 pull-down of Flag-PEX3ΔN variants at the same concentrations of PEX19 and PEX3 as in the PEX26^Bpa crosslinking experiments (400 nM)
Settings: both partners purified

| binding result | Binder |
| --- | --- |
| binds | B1 |
| binds | B2 |
